B1: mAb37-ABDEG (parental) (antibody)
chain 1: QVQLVQSGAEVMKPGSSVKVSCKASGYTFSWYHLEWVRQAPGHGLEWMGEIDPGTFTTNYNEKFKARVTFTADTSTSTAYMELSSLRSEDTAVYYCARFSHFSGSNHDYFDYWGQGTLVTVSSASTKGPSVFPLAPSSKSTSGGTAALGCLVKDYFPEPVTVSWNSGALTSGVHTFPAVLQSSGLYSLSSVVTVPSSSLGTQTYICNVNHKPSNTKVDKKVEPKSCDKTHTCPPCPAPELLGGPSVFLFPPKPKDTLYITREPEVTCVVVDVSHEDPEVKFNWYVDGVEVHNAKTKPREEQYNSTYRVVSVLTVLHQDWLNGKEYKCKVSNKALPAPIEKTISKAKGQPREPQVYTLPPSRDELTKNQVSLTCLVKGFYPSDIAVEWESNGQPENNYKTTPPVLDSDGSFFLYSKLTVDKSRWQQGNVFSCSVMHEALKFHYTQKSLSLSPG
chain 2: EIVMTQSPATLSVSPGERATLSCRASQSIGTNIHWYQQKPGQAPRLLIYYASESISGIPARFSGSGSGTEFTLTISSLQSEDFAVYYCQQSWSWPTTFGGGTKVEIKRTVAAPSVFIFPPSDEQLKSGTASVVCLLNNFYPREAKVQWKVDNALQSGNSQESVTEQDSKDSTYSLSSTLTLSKADYEKHKVYACEVTHQGLSSPVTKSFNRGEC
B2: efgartigimod (other)
chain: DKTHTCPPCPAPELLGGPSVFLFPPKPKDTLYITREPEVTCVVVDVSHEDPEVKFNWYVDGVEVHNAKTKPREEQYNSTYRVVSVLTVLHQDWLNGKEYKCKVSNKALPAPIEKTISKAKGQPREPQVYTLPPSRDELTKNQVSLTCLVKGFYPSDIAVEWESNGQPENNYKTTPPVLDSDGSFFLYSKLTVDKSRWQQGNVFSCSVMHEALKFHYTQKSLSLSPGK
B3: bivalent (TA) HEL-ABDEG (antibody, human IgG1, kappa)
heavy: QVQLQESGPGLVRPSQTLSLTCTVSGFSLTGYGVNWVRQPPGRGLEWIGMIWGDGNTDYNSALKSRVTMLKDTSKNQFSLRLSSVTAADTAVYYCARERDYRLDYWGQGSLVTVSSASTKGPSVFPLAPSSKSTSGGTAALGCLVKDYFPEPVTVSWNSGALTSGVHTFPAVLQSSGLYSLSSVVTVPSSSLGTQTYICNVNHKPSNTKVDKKVEPKSCDKTHTCPPCPAPELLGGPSVFLFPPKPKDTLYITREPEVTCVVVDVSHEDPEVKFNWYVDGVEVHNAKTKPREEQYNSTYRVVSVLTVLHQDWLNGKEYKCKVSNKALPAPIEKTISKAKGQPREPQVYTLPPSRDELTKNQVSLTCLVKGFYPSDIAVEWESNGQPENNYKTTPPVLDSDGSFFLYSKLTVDKSRWQQGNVFSCSVMHEALKFHYTQKSLSLSPGK
light: DIQMTQSPSSLSASVGDRVTITCRASGNIHNYLAWYQQKPGKAPKLLIYYTTTLADGVPSRFSGSGSGTDYTFTISSLQPEDIATYYCQHFWSTPRTFGQGTKVEIKRTVAAPSVFIFPPSDEQLKSGTASVVCLLNNFYPREAKVQWKVDNALQSGNSQESVTEQDSKDSTYSLSSTLTLSKADYEKHKVYACEVTHQGLSSPVTKSFNRGEC
notes: Two-armed anti-hen egg lysozyme antibody with an Fc-ABDEG region; Copies of 2 follow from 'bivalent (TA)'
B4: one-armed (OA) HEL-ABDEG (antibody, human IgG1, kappa)
heavy: QVQLQESGPGLVRPSQTLSLTCTVSGFSLTGYGVNWVRQPPGRGLEWIGMIWGDGNTDYNSALKSRVTMLKDTSKNQFSLRLSSVTAADTAVYYCARERDYRLDYWGQGSLVTVSSASTKGPSVFPLAPSSKSTSGGTAALGCLVKDYFPEPVTVSWNSGALTSGVHTFPAVLQSSGLYSLSSVVTVPSSSLGTQTYICNVNHKPSNTKVDKKVEPKSCDKTHTCPPCPAPELLGGPSVFLFPPKPKDTLYITREPEVTCVVVDVSHEDPEVKFNWYVDGVEVHNAKTKPREEQYNSTYRVVSVLTVLHQDWLNGKEYKCKVSNKALPAPIEKTISKAKGQPREPQVYTLPPSRDELTKNQVSLWCLVKGFYPSDIAVEWESNGQPENNYKTTPPVLDSDGSFFLYSKLTVDKSRWQQGNVFSCSVMHEALKFHYTQKSLSLSPG
chain: DKTHTCPPCPAPELLGGPSVFLFPPKPKDTLYITREPEVTCVVVDVSHEDPEVKFNWYVDGVEVHNAKTKPREEQYNSTYRVVSVLTVLHQDWLNGKEYKCKVSNKALPAPIEKTISKAKGQPREPQVYTLPPSRDELTKNQVSLSCAVKGFYPSDIAVEWESNGQPENNYKTTPPVLDSDGSFFLVSKLTVDKSRWQQGNVFSCSVMHEALKFHYTQKSLSLSPG
light: B3 light
notes: One anti-HEL Fab joined by a natural IgG1 hinge to the N-terminus of Fc-ABDEG; The Fc is a knob-into-hole heterodimer

Key:
[1] = target: T1, neonatal Fc receptor (FcRn) (human, UniProt P55899 24-365; P61769 21-119); assay: FcRn occupancy assay, 'previous studies'
T1 construct: whole, on cells; also called human FcRn

[2] = target: T1, neonatal Fc receptor (FcRn); assay: in vitro FcRn occupancy assay
[3] = target: T1, neonatal Fc receptor (FcRn); assay: in vitro FcRn occupancy assay; reference implied to be two-armed TA-HEL-ABDEG

T1 sequence (P55899 24-365 limits assumed, form in doubt, chain 1 of 2): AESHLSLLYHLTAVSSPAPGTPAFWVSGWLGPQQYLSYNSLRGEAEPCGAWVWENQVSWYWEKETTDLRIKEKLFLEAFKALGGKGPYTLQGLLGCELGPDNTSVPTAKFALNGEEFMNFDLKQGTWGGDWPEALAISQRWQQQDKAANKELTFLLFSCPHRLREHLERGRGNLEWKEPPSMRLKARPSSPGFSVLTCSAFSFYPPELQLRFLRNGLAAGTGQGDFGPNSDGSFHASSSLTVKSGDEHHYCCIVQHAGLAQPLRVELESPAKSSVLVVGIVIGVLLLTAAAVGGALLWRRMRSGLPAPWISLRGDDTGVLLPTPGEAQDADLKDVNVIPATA
T1 sequence (P61769 21-119 limits assumed, form in doubt, chain 2 of 2): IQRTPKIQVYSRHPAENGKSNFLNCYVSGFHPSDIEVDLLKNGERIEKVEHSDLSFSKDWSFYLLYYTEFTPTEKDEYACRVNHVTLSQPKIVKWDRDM

Binder | IC50 [1] [nM] | IC50 [2] [nM] | fold improvement in FcRn occupancy [3] [fold]
B1 | > 100 | – | –
B2 | – | 6 | –
B3 | – | 14 | –
B4 | – | 7 | 2

From patent US20250122288A1 (ARGENX, published 2025)
